# Source: the DeepSol protein solubility set
# Assay: soluble on expression in E. coli; label from the status in PepcDB or PDB records
row,Sequence,soluble on expression in E. coli
1,MSLEAFIRSDQYNFIKSQAYILANGHATANDRGVIQALKSLAIEKIIHVFENLTDEQKELIDTVLTVQNREDAESFLMKIKPYVIPFQEVTAQTLKKLFPKAKKLKLPDMEEMDMKEISYLSWIDKGSSRKFIIAKNDKNKFVGLQGTFQSLNKKSICSLCHGHEEVGMFLVEIKGDIPGTFVKKGNYICKDGVACNQNMKSLDKLQDFIERLKKEGHHHHHH,soluble
2,MSLDNMAKRQTKDIETIIQKIYYAKNRHLGTYTPLKNNSELEEINNYIYDLFESNEQLIHSIEHTERRLRDIQLKEIERQFQPHFLFNTMQTIQYLITLSPKLAQTVVQQLSQMLRYSLRTNSHTVELNEELNYIEQYVAIQNIRFDDMIKLHIESSEEARHQTIGKMMLQPLIENAIKHGRDTESLDITIRLTLARQNLHVLVCDNGIGMSSSRLQYVRQSLNNDVFDTKHLGLNHLHNKAMIQYGSHARLHIFSKRNQGTLICYKIPLSRGNVDVEGHHHHHH,not soluble
3,MESKNKNGDYVIPDSVKNYDGEPLYILVSLWCKLQEKWISRNDIAEAFGINLRRASFIITYISRRKEKISFRVRYVSYGNLHYKRLEIFIYDVNLEAVPIESPGTTGPKRKTYRVGNGIVGQSNIWNEMIMRRKKES,not soluble
4,MWKRIALFLVVLLLAACGKTIPDAKNWPVEDFTFVDQTGKPFGLRDLKGKVWVADFIFTNCETVCPPMTAHMAKLKQMAKKEGLDVEFVSFSVDPEVDTPEKLAAYAKQFTDDLSNWHLLTGYSPAEISELAQKSFKTIVQKPANDDQVVHGTSFYLVGPDGKVVQTYSGVQDVPYETILEHIKIVQSSQ,not soluble
5,MSLIEIESRELADIPVLHAYPVGQKDTPLPCVIFYHGFTSSSLVYSYFAVALAQAGLRVIMPDAPDHGSRFSGDAARRLNQFWQILLQSMQEFTTLRAAIAEENWLLDDRLAVGGASMGAMTALGITARHPTVRCTASMMGSGYFTSLARSLFPPLIPETAAQQNEFNNIVAPLAEWEATNHLEQLSDRPLLLWHGLDDDVVPADESLRLQQALSETGRDKLLTCSWQPGVRHRITPEALDAAVTFFRQHLEGGSHHHHHH,soluble
6,MSLGRKIKKETMIFPRYHQLRAVRELEDAARTEGPGHNYLVEHSAGSGKSNTIGWLAHRLASLHNESDHKVFDSVIVITDRRVLDRQLQDTIYQFEHRQGVVQKIDEDSRQLAEALTNSVPIIISTLQKFPFVARQLARMAEERREGADGILPTRRCAVIIDEAHSSQSGETATDLKEVLGGHVLREEAARYAVDEGVDNLDELYRSMAKRGRQTNLSFFAFTATPKHKTLAVFGRDEAGKAGQPFHRYTMSQAIEEGFIMDVLKNYTTYATYYKLVKASEDDPNVERKQAAKALARFMRLHPYNIAQKTEVMVEHFNAVTRHKVGGKAKAMVVTGSRLEAVRYKLAFDAYIREKGYSWIKTLVAFSGEVVDDELPGKTWTEVGMNGGIKEGVLPEKFDSSEYQVLLVAEKYQTGYDQPLLHTMYVDKRLAGIQAVQTLSRLNRMHPLKEDTFVLDFVNDRQEIKEAFKQYHEGAEMGEEADPNQMYAIKAELDASGIYLLEEMQRFIGIYFKPKQRQSPADHQAMNAALDPAVDRFRAVQEEDEEQAELWRGKLSAFRNLYAFLSQVAPYQDSDLERLYTFLRFLSPKLPKRTTGQRYSFDDEVRLEYYRLQKISEGSISLRDGKAELLDGPGEVGSGARHDEDVPLSSLIDVINERFGTDFTDADQLFFDQIIEAAMEDGSLLEAAAVNPEEKFALLFAGLLETLFIERMEQNEDIFARFMNERDFQSLVSKWISGKVYARLREGHHHHHH,not soluble
7,GKTFPSRAYIDGTLSARVIAHEFGHNLGLSHAKALDCGDASVSNNCSVIEYGDSYDVMGTPDMGYINTYYKERMGWLNDAESPNILTATQDGLYEIAEYETQDITQNIALKIPRGVNPNSGLKEWFYVEYRQAMGYDQFLDDRSYMLFRGDVTDGVIVRLVEEGAEESYILHMKPNSDYSQVYGRKDWKDTALPVGDSFTDP,not soluble
8,MGVLITGCGSRGDTEPLVALAARLRELGADARMCLPPDYVERCAEVGVPMVPVGRAVRAGAREPGELPPGAAEVVTEVVAEWFDKVPAAIEGCDAVVTTGLLPAAVAVRSMAEKLGIPYRYTVLSPDHLPSEQSQAERDMYNQGADRLFGDAVNSHRASIGLPPVEHLYDYGYTDQPWLAADPVLSPLRPTDLGTVQTGAWILPDQRPLSAELEGFLRAGSPPVYVGFGSGPAPAEAARVAIEAVRAQGRRVVLSSGWAGLGRIDEGDDCLVVGEVNHQVLFGRVAAVVHHGGAGTTTAVTRAGAPQVVVPQKADQPYYAGRVADLGVGVAHDGPTPTVESLSAALATALTPGIRARAAAVAGTIRTDGTTVAAKLLLEAISRQRSSVPAAKLAAALEHHHHHH,soluble
